The record followed here is the DeepSol protein solubility set.

The nature of this data set: soluble on expression in E. coli; label from the status in PepcDB or PDB records.
Regarding “AMADTIVAVELDSYPNTDIGDPNYPHIGIDIKSIRSKSTARWNMQTGKVGTVHISYNSVAKRLSAVVSYSGSSSTTVSYDVDLNNVLPEWVRVGLSATTGLYKETNTILSWSFTSKLKTNSIADANSLHFSFNQFSQNPKDLILQGDAFTDSDGNLQLTKVSSSGDPQGNSVGRALFYAPVHIWEKSAVVASFDATFTFLIKSPDREPADGITFFIANTDTSIPSGSGGRLLGLFPDAN”, the “soluble on expression in E. coli” value is recorded as “soluble”.

As to “ANGLITKIWGTAGWTFNHAVTFGYPLNPTSDDKRRYKNYFISLGDVLPCRLCRESYKKFITTGKTALTNEVLRNRHTLTKWFYDVHNAVNNKLEVDYGLSYEDVVNKYESFRAK”, the “soluble on expression in E. coli” value is given as “soluble”. Take “AQELQTANEFTVHTDLSSISSTRAFLKEKHKAAKHIGVRADIPFDANQGIRLEAGFGRSKKNIINLETDENKLGKTKNVKLPTGVPENRIDLYTGYTYTQTLSDSLNFRVGAGLGFESSKDSIKTTKHTLHSSRQSWLAKVHADLLSQLGNGWYINPWSEVKFDLNSRYKLNTGVTNLKKDINQKTNGWGFGLGANIGKKLGESASIEAGPFYKQRTYKESGEFSVTTKSGDVSLTIPKTSIREYGLRVGIKF”: the “soluble on expression in E. coli” value is “soluble”.

With “AQKPWEKDAWEIPRESLKLEKKLGAGQFGEVWMATYNKHTKVAVKTMKPGSMSVEAFLAEANVMKTLQHDKLVKLHAVVTKEPIYIITEFMAKGSLLDFLKSDEGSKQPLPKLIDFSAQIAEGMAFIEQRNYIHRDLRAANILVSASLVCKIADFGLARVIEDNEYTAREGAKFPIKWTAPEAINFGSFTIKSDVWSFGILLMEIVTYGRIPYPGMSNPEVIRALERGYRMPRPENCPEELYNIMMRCWKNRPEERPTFEYIQSVLDDFE”, the “soluble on expression in E. coli” value is “soluble”.

Consider “AQRRAVAAAGGLARSCPAGQQALLAEGFARRLLRDVAATLHEGEYTSPLCEPLAYADPLAGLAAALAELMAWPGLLAVLQPVQAQPDAVAAAAGAGAPAAAGAGVGAGSGARQRLAQETADRARAEVLVLLQELVTWLDPCCDDSRGVAPQDAAAVSLAAFRSLVEHDPGAAAALDADTNIRWYLCNLTGDDAPPAAPPAECVAPQSDMLLDLARRLLAALPPLAAAAAPG”, for which the “soluble on expression in E. coli” value is “not soluble”.

Consider “ASQIERNLARISAEKNRLDTILRGMGEGLMVSDAGGTVTLVNPAFLELFGLTQSVEGRQIIEIARFPELHETFRAVVSSRSEHVEEMTLPLGDEKQVLTHWVPLMEEDELRGVVAVFHDIS”, for which the “soluble on expression in E. coli” value is listed as “not soluble”. Take “ATALQCFCHLCTKDNFTCVTDGLCFVSVTETTDKVIHNSMCIAEIDLIPRDRPFVCAPSSKTGSVTTTYCCNQDHCNKIELPTTV”: the “soluble on expression in E. coli” value is “soluble”. In the case of ATCYCRTGRCATRESLSGVCEISGRLYRLCCR it was “soluble”. In the case of “ATEAHPAGGRLVLRPVRKSDAGLFAMYAGDRRVAEGTRGIPHPLPPGAAEAFVNRSTAEARSEDVWVMDGSASGLSEVLGVISLKRMDRDQSEIAYWVAPAFWNAGFASEAVRALIEANPQGSRTIFAEVFQDNPQSARVLTNCGFEYIGDAEAFSVARNARVPTWTY” it was “not soluble”. As to “ATGGGTAATAATTTAATGCAGACGGACCTTTCCGTCTGGGGTATGTATCARCACGCCGATATTGTCGTTAAGTGCGTGATGATTGGGCTTATTTTGGCCTCCGTAGTCACCTGGGCAATCTTCTTCAGTAAGAGCGTAGAGTTCTTTAATCAGAAGCGTCGCCTTAAGCGCGAGCAGCAACTGCTGGCTGAAGCGCGTTCCTTAAACCAGGCCAACGATATCGCCGCTGATTTTGGTAGCAAAAGCTTAAGCCTGCATTTGCTCAATGAAGCGCAGAATGAGCTGGAACTGTCAGAAGGCAGCGACGATAACGAAGGTATTAAAGAACGTACCAGCTTCCGTCTGGAGCGTCGGGTCGCCGCAGTAGGTCGTCAAATGGGCCGCGGTAACGGCTATCTGGCAACCATCGGCGCGATTTCGCCGTTCGTTGGGCTGTTTGGTACGGTCTGGGGCATCATGAACAGCTTTATTGGTATCGCGCAAACGCAGACCACTAACCTGGCAGTCGTTGCGCCGGGTATCGCAGAAGCTCTGTTAGCAACGGCAATCGGTCTGGTGGCAGCGATTCCGGCGGTCGTTATCTATAACGTATTCGCGCGTCAGATTGGCGGCTTTAAAGCGATGCTGGGTGATGTCGCAGCGCAGGTATTGTTGCTGCAAAGCCGTGACCTGGATCTGGAAGCCAGCGCCGCTGCGCATCCGGTTCGTGTCGCACAAAAATTACGCGCAGGATAA”, the “soluble on expression in E. coli” value was “not soluble”. In the case of “AVCDTPHERLTILYTKILDLLKHFPKHAAYRKYTEQITSEKLELVKLEPDVKKLENLLQGG” it was “soluble”; in that of “AWKGEVLANNEAGQVTSIIYNPGDVITIVAAGWASYGPTQKWGPQGDREHPDQGLICHDAFCGALVMKIGNSGTIPVNTGLFRWVAPNNVQGAITLIYNDVPGTYGNNSGSFSVNIGKDQS”, “soluble”; in that of “AWVDQTPRSVTKETGESLTINCALKNAADDLERTDWYRTTLGSTNEQKISIGGRYVETVNKGSKSFSLRIRDLRVEDSGTYKCGAYFSDAMSNYSYPIPGEKGAGTVLTVKAA”, “soluble”. The value for “AWVDQTPRTATKETGESLTINCVLRDASYGLESTGWYRTKLGSTNEQTISIGGRYVETVNKGSKSFSLRIRDLRVEDSGTYKCGAFRFWLPYGYGSLPLSEKGAGTVLTVK” was “soluble”; that for “CDAGRAKDKANEMMQGGNSLFGAMEGGTKEQVVLDMIDLGEHDAKTLLECEYETLGIHVSGNPLDEFKEEIKGFKNLVKSIDIEELEIGS” was “not soluble”; that for “CIIDKVTAVRRLNVLTLNVHKGFTFFNRRFILPELREAVRATGADLVFLQEVHGSHQQHALRHPAWPETPQYEFLADSMWPQFAYGRNAVYPHGDHGNALLSKFPIRRFNNLDVSVQGNEQRGLLHCQLEVPGHDEVHAVCVHLGLREAHRQRQVKLMLDLLASLPPNAPVIIAGDFNDWRLKADAVLSEHLTEAFGTPARSFPARLPLLRLDRIYLRNAVPGAAQVLSKYPWSHLSDHVPLAAEINL” was “not soluble”.

Consider “CSEPYEGKVAVASVILNRLQNPEFPKSIGDVIKQKYAFSCIRDGKIEVTPNQECYNAVMDALHGKDPTPKAMYFYNPRISTSSWMNNIQKENVKVIGNHVFFKTYKE”, for which the “soluble on expression in E. coli” value is on record as “not soluble”. The value for “DAAPAAGSTLDKIAKNGVIVVGHRESSVPFSYYDNQQKVVGYSQDYSNAIVEAVKKKLNKPDLQVKLIPITSQNRIPLLQNGTFDFECGSTTNNVERQKQAAFSDTIFVVGTRLLTKKGGDIKDFADLKGKAVVVTSGTTSEVLLNKLNEEQKMNMRIISAKDHGDSFRTLESGRAVAFMMDDALLAGERAKAKKPDNWDIVGKPQSQEAYGCMLRKDDPQFKKLMDDTIAQVQTSGEAEKWFDKWFKNPIPPKNLNMNFELSDEMKALFKEPNDKALNLEHHHHHH” was “soluble”; that for “DAARRGGAAGGGGPRSPRRSGPLGPHACPPALPEPKVTSTMSSQVVGIEPLYIKAEPASPDSPKGSSETETEPPVTLASGPAPARCLPGHKEEEDGEGAGSGEQGSGKLVLSSLPKRLCLVCGDVASGYHYGVASCEACKAFFKRTIQGSIEYSCPASNECEITKRRRKACQACRFTKCLRVGMLKEGVRLDRVRGGRQKYKRRPEVDPLPFPGPFPAGPLAVAGGPRKTAPVNALVSHLLVVEPEKLYAMPDPASPDGHLPAVATLCDLFDREIVVTISWAKSIPGFSSLSLSDQMSVLQSVWMEVLVLGVAQRSLPLQDELAFAEDLVLDEEGARAAGLGDLGAALLQLVRRLQALRLEREEYVLLKALALANSDSVHIEDAEAVEQLREALHEALLEYEAGRAGPGGGAERRRAGRLPCTLPLLRQTAGKVLAHFYGVKLEGKVPMHKLFLEMLEAMMD” was “soluble”. Take “DAPLNSVEGFIRQVLGWREFLRHVYRREMPSLAEANQLGANEALPDFYWNGDTDMACLSDVVDGVRERGYSHHIERLMILANFGLIYGVEPAQLNRWFHAGYVDAFHWVTTPNVVEMGLYGAGVFATKPYASSANYVDKMSDYCSGCPYYKTKTTGDGACPFNALYWDFLDRNEETLRSNHRMGLMYSHVDNKSDEELGEIRERAAEIREMATKGE”: the “soluble on expression in E. coli” value was “not soluble”. The value for “DDKLRIGGTALFKRDRFVDNIGIEDSFFLKLMVDEMKQTTHQFQIDEDGEKAYVVVEKIFSSFNREMTGSMEAPHFRCHIHFRGEITDYTGPLTLTKDETMNKIEEGMARQIETKGEELLKRFQSLGIDPVGLGEKYRSHTRDWKPGVWHDSIYEQATVEVTAEVEIVQSGVTE” was “not soluble”.

On to “DDYDQSLCSTGFYVVRSNQINPETLLTLFKSLPIQQLLKKACSGTILTGIGKQEFEKIPIPLIRPEVQEEIAQHVQRSFALRKEASELLEKAKLSVEYAIETGGGNSLIYSGLLNTLAKYERLAMWLLLKELGIVDESPNRQRVVTTEKRLSESFFTSGRLDAEYYQPKYDYLDAQFSSIPTKRLGDIVNIHKSIEPGSDAYQENGIPFVRVADLSKFGIETSSICLDSSTYSTAPRPRKNTILLSKDGSVGIAYKMEEDADIITSGAILHLSMKGKELLPDYLTLVLNSPIVRMQAERDAGGSIIQHWKPSEISQVIIPMLPVYIQQKLSDLVSKSFAFRRESKALLERAKAMVEQAIEFSA”, for which the “soluble on expression in E. coli” value is “not soluble”.

For the sequence “DIVMTQSPLSLPVTPGEPASISCRSSQSIVHSNGHTYLEWYLQKPGQSPRLLIYQVSTRFSGVPDRFSGSGSGTDFTLKISRVEAEDVGVYYCFQASLVPLTFGQGTKLEIKRTVAAPSVFIFPPSDEQLKSGTASVVCLLNNFYPREAKVQWKVDNALQSGNSQESVTEQDSKDSTYSLSSTLTLSKADYEKHKVYACEVTHQGLSSPVTKSFNRGECAAADYKDDDD”, the “soluble on expression in E. coli” value was “soluble”. The value for “DKGTALLVNRSLRFGERTAEELMTPRVKIVTLSTTDTVADLIDTASRTGFSRFPVVESDLDDAVGVVHIKHAFAVPAHRRRTARLNSLAQKVPVVPSSLDGDALMERIRSDGMQVAFVVDEYGGTAGMVTMEDLIEEIVGDVR” was “not soluble”; that for “DKMTIEVPVLTFVPVQVSAELENRGCWVKFFDKKNFQGDSLFLSGPATLPRLIGPFGYDWENKVRSVKVGPRANLTIFDNHNYRDEDKFLDAGANVANLSKEMGFFDNFRSMVLNCI” was “soluble”; that for “DKVQNAVMQAMVRGSLNKDLAAQIKDLGKTTEKRAMFIARDQSSKLNAALTQARHEEVGIKKYMWSASLDERVRESHAEKDGQIFEYANPPADTDHPGHDFNCRCVQI” was “not soluble”.

Consider “DLKYILETKLEEERNHLEELLEKVEEDYEGINYDEVLEALKLFKDNYELPKSKIKRKIRIFLIKENILFLNPQKGTLKPQSYLVWNAIKRML”, for which the “soluble on expression in E. coli” value was “soluble”. In the case of “DLQNMDATNWLGNSVSEGFIHQFQRRGFKVVDFKTTGSIQVTQQGDFALSRDWQDLAQEQQIQYVLTGTMLRQEGGVLVNARVVGMQSRVVVATAQGFLPADRIGRDLDTLNSIRTQDGVLIRSDPTIRQPYTVILRP” it was “not soluble”. The value for “DMPVEKIQEAEMAVEPKDGNMVEQPNDPVTNICQAADKQLVTLVEWAKRIPHFSDLPIDDQVILLRAGWNELLIAAFSHRSIDVKDGILLASGLHVHRSSAHQAGVGTIFDRVLTELVAKMRDMKMDKTELGCLRAIVLFNPDAKGLTDPSLVESLREKVYASLEEYCKQQYPEQPGRFAKLLLRLPALRSIGLKCLEHLFFFKLIGDTPIDTFLMEML” was “soluble”; that for “DNARTNPLKDLEFFLHSFRGLLEKAPVVVGITKMDIRSQPGIDVYHKYLAKHNLNVPVFEIDARKEDDVKQLVSAMLFSIDPGLEV” was “not soluble”.
